Measurements published in PMC11790958 (The EMBO Journal, 2024).
No end group written: not given here. *: point of attachment. 5FAM = O=C1OC2(c3ccc(O)cc3Oc3cc(O)ccc32)c2ccc(C(=O)*)cc21; 5‑FAM = 5-carboxyfluorescein label

Assays:
[1] = biological target: T1, yeast condensin pentamer (S. cerevisiae, UniProt P38989 1-1170; Q12267 1-1418; P38170 1-754; Q06156 1-1176; Q06680 1-1035); test: fluorescence polarisation; 100 nM 5-FAM labelled peptide, protein or complex titrated; 20 mM HEPES pH 8, 150 mM KCl, 2.5 mM MgCl, 5% glycerol, 1 mM DTT; room temperature, 15 min; settings: both partners purified
T1 construct: Smc2, S. cerevisiae condensin subunit; Smc4, S. cerevisiae condensin subunit; Brn1, S. cerevisiae condensin kleisin subunit; Ycs4, S. cerevisiae condensin HAWK subunit; Ycg1, S. cerevisiae condensin HAWK subunit; also called ScCondensin Pentamer; pentameric yeast condensin; source: purified as described previously (Martínez-García et al, 2022; Lee et al, 2020); copies: + + + +

[2] = biological target: T2, human condensin I pentamer, wild type (human, UniProt O95347 1-1197; Q9NTJ3 1-1288; Q15003 1-741; Q15021 1-1401; Q9BPX3 1-1015); test: as above; settings: both partners purified
T2 construct: SMC2, human condensin I subunit; SMC4, human condensin I subunit; NCAPH, human condensin I kleisin subunit; NCAPD2, human condensin I HAWK subunit; NCAPG, human condensin I HAWK subunit; The complex carries a strep tag; also called CI; CIWT; source: Sf9 insect cells (baculovirus), co-expressed, purified (StrepTrap, heparin, SEC); copies: + + + +

B1: 5-FAM Lrs4(317-337) peptide (peptide)
peptide: {5‑FAM}-NKKRKLTKQRIATLPNSDEEL
notes: also called 5-FAM Lrs4(317-339); Lrs4 peptide; source: synthetic peptide; bought: Genscript
Kd [1]: 12.9 ± 2.5 µM

B2: 5-FAM Sgo1(503-523) peptide (peptide)
peptide: TRTKKLFKNAIVNNLSDENST
modifications: also: 5-FAM label, end not given here
notes: Sgo1, yeast shugoshin, residues 503-523, SLiM; also called Sgo peptide; source: synthetic peptide; bought: Genscript
Kd [1]: 4 ± 0.3 µM

B3: 5-FAM-KIF4A WT(1206-1228) peptide (peptide)
peptide: 5FAM-PGKKKKRALASNTSFFSGCSPIE
notes: KIF4A, chromokinesin, residues 1206-1228 (C-terminal tail SLiM); also called 5-FAM-KIF4A(1206-1228); 5-FAM labelled KIF4A; source: synthetic peptide; bought: Genscript
Kd [2]: 17.7 µM

B4: 5-FAM NCAPD2-C(1376-1398) peptide (peptide)
peptide: 5FAM-SAEMTEDETPKKTTPILRASARR
notes: NCAPD2, human condensin I HAWK subunit, residues 1376-1398 (C-terminal SLiM); also called 5-FAM-NCAPD2(1376-1398); F-NCAPD2-C(1376-1398); source: synthetic peptide; bought: Genscript
binding result [2]: binds
